From paper PMC12999518 (Nature Structural & Molecular Biology, 2026) come the findings set out here.

B2: Npr2 (natural protein, yeast (endogenous, TB50 background), UniProt P39923 1-615, looked up)
chain: MLSYFQGFVPIHTIFYSVFHPTEGSKIKYEFPPNNLKNHGINFNTFKNYIIPKPILCHKLITFKYGTYRIVCYPVTINSPIYARNFFSFNFVFVFPYDCETSPYEPAITRLGKMFKVLEEQNQLLSKSERDPVFFDLKVLENSTTTPSTAGPSSTPNPSSNTTPTHPTSEKDTKDMRSSRYSDLIKDLGLPQSAFSIQDLLMRIFQDLNNYSECLIPIDEGNAVDIKIFPLLRPPTTCVSLEDVPLSSVNLKKIIDVNWDPTMMSIVPYIDGLNSIAKISKLSNSDPGLVIECIRHLIYYKCVTLSDIFQFSNIYAPSSLIRNFLTDPLMASDCQSYVTFPEVSKISNLPLNKSLGSGDQDSPSFSVRRKSKSSSIPSNPDSRTTSFSSTSRVSQNSSLNSSFSSIYKDWRQSQTSCSSSNIHVINNRNRFLPTRSCLFDLYRSLSQGQTLKTWYESKYMILKENNIDIRRFITFGLEKRIIYRCYSFPVMINAGSREPKEMTPIITKDLVNNDKLLEKRNHNHLLSATGSRNTAQSGNLKPERPSKVSFEMQRVSSLATGKSTMPKLSDEEEGILEESIRNAETFDKICVLLSKPKLEVESYLNELGEFKVINS
B3: Gtr2 (natural protein, yeast, UniProt P53290 1-341, looked up)
chain: MSLEATDSKAMVLLMGVRRCGKSSICKVVFHNMQPLDTLYLESTSNPSLEHFSTLIDLAVMELPGQLNYFEPSYDSERLFKSVGALVYVIDSQDEYINAITNLAMIIEYAYKVNPSINIEVLIHKVDGLSEDFKVDAQRDIMQRTGEELLELGLDGVQVSFYLTSIFDHSIYEAFSRIVQKLIPELSFLENMLDNLIQHSKIEKAFLFDVNSKIYVSTDSNPVDIQMYEVCSEFIDVTIDLFDLYKAPVLRNSQKSSDKDNVINPRNELQNVSQLANGVIIYLRQMIRGLALVAIIRPNGTDMESCLTVADYNIDIFKKGLEDIWANARASQAKNSIEDDV

Assay in all cases: cryo-EM structure
For the assay “Gtr2”, the target named is B3.
The assay “Npr2” deals with B2.
A further assay has as its target T1, Sea3 (yeast (endogenous, TB50 background), UniProt Q03897 1-1148).
T1 sequence (looked up): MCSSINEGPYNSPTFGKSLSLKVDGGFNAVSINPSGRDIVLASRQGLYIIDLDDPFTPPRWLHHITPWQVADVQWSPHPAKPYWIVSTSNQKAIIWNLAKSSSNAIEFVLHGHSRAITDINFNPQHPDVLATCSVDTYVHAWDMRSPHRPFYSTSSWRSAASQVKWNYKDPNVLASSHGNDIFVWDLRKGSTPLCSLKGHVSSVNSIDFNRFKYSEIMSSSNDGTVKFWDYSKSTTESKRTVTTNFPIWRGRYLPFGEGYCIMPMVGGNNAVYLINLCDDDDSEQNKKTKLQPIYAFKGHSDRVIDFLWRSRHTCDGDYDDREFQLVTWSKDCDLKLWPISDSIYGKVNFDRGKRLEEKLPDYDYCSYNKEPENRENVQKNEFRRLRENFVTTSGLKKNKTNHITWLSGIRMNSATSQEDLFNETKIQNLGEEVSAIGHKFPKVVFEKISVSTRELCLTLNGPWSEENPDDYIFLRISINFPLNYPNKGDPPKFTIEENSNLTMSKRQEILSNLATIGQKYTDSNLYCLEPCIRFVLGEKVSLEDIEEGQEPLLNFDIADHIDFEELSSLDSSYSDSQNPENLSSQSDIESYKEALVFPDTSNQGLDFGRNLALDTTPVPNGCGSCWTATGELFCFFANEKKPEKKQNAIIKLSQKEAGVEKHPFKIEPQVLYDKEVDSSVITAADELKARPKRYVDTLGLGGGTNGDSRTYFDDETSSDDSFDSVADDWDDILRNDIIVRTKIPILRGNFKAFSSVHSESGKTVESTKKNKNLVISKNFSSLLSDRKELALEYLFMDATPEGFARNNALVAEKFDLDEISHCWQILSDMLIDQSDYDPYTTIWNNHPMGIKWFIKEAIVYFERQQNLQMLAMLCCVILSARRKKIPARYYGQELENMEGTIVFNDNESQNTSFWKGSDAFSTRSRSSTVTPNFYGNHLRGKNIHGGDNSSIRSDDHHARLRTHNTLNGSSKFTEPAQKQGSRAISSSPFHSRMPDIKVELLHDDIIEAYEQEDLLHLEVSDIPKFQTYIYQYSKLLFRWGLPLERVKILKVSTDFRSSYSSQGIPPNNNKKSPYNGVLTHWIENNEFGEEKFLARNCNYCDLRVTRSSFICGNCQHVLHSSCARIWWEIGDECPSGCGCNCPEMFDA

In the next assay the target is Sea1 (yeast (endogenous, TB50 background), UniProt P47170 1-1584).
Sequence of Sea1 (P47170 whole entry): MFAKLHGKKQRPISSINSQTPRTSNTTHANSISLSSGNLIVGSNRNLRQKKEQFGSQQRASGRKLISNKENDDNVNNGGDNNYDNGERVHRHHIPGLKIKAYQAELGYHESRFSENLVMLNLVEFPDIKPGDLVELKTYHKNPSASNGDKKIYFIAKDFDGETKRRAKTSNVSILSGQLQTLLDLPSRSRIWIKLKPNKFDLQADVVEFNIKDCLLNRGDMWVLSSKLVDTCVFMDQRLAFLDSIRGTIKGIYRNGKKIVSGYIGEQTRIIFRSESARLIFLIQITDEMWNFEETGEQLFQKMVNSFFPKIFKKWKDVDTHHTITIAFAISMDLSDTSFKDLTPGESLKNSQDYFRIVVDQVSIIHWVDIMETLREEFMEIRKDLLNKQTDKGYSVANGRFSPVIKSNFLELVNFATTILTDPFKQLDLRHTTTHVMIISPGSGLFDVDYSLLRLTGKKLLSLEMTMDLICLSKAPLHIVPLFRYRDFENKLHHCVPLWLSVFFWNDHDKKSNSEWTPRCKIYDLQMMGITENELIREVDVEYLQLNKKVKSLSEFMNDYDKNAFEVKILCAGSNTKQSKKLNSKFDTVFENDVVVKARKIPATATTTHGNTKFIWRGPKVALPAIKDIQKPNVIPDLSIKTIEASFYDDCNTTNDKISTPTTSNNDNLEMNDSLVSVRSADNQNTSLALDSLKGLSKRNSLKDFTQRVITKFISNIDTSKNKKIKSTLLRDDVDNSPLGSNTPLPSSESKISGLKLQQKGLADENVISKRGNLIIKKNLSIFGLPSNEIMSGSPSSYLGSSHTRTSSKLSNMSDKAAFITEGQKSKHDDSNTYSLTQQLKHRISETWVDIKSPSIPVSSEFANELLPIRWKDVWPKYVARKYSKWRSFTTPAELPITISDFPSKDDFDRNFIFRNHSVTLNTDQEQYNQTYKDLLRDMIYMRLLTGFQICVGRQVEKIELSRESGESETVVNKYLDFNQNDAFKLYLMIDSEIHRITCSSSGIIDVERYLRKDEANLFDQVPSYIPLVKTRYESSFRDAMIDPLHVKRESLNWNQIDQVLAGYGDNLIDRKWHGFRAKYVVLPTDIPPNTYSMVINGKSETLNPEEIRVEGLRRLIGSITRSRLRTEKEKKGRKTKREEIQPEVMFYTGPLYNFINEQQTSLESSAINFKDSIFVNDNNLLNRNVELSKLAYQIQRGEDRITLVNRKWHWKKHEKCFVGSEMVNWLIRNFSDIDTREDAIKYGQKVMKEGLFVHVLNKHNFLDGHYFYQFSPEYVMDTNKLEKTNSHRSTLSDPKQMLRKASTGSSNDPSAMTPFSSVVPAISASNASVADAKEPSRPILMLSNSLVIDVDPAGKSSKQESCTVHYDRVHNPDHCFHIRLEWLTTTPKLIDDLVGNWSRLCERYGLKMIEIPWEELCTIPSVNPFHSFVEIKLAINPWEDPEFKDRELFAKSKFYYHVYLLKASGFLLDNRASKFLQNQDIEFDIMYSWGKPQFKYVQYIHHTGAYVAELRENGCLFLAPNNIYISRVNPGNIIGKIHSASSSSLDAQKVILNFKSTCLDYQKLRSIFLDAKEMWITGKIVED

B1: Gtr1 (natural protein, yeast, UniProt Q00582 1-310, looked up)
chain: MSSNNRKKLLLMGRSGSGKSSMRSIIFSNYSAFDTRRLGATIDVEHSHLRFLGNMTLNLWDCGGQDVFMENYFTKQKDHIFQMVQVLIHVFDVESTEVLKDIEIFAKALKQLRKYSPDAKIFVLLHKMDLVQLDKREELFQIMMKNLSETSSEFGFPNLIGFPTSIWDESLYKAWSQIVCSLIPNMSNHQSNLKKFKEIMNALEIILFERTTFLVICSSNGENSNENHDSSDNNNVLLDPKRFEKISNIMKNFKQSCTKLKSGFKTLILNNNIYVSELSSNMVCFIVLKDMNIPQELVLENIKKAKEFFQ
In the case of B1, the binding result in the assay with Gtr2 and with Npr2 was “binds” throughout. Consider B2, for which, in the assay with Sea3, the binding result is reported as “binds”. Turning to B3, the binding result in the assay with Sea1 is on record as “binds”.
